Substitutions are numbered along the chain they refer to. Each block holds one molecule with its values, some of them ahead of it.
Key:
[1] = biological target: T1, HMmm1s–Mdm12 complex (K. lactis) (Kluyveromyces lactis, UniProt Q6CJU9+Q6CUC3); test: NBD dequenching lipid transfer between liposomes; type: biochemical; conditions: 12.5 µM donor and 50 µM acceptor liposomes; pH 7.5; labelled compound
T1 sequence (Q6CJU9 179-434): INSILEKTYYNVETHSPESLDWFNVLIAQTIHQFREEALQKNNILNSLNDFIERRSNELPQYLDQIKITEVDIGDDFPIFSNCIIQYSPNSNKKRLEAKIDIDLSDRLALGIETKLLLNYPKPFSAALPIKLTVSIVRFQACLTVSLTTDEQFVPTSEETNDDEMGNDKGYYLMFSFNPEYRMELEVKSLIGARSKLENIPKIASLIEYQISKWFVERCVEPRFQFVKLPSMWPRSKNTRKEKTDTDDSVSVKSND
T1 sequence (Q6CUC3 1-239): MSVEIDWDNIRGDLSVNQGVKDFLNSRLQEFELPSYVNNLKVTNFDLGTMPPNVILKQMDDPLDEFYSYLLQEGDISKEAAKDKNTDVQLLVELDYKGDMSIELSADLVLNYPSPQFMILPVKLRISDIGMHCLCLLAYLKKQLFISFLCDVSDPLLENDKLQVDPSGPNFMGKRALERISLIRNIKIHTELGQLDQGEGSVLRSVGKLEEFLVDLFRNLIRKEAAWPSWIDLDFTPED

[2] = biological target: T2, N-terminally His6-tagged K. lactis Mmm1s (179–434) V190S (Kluyveromyces lactis, UniProt Q6CJU9 179-434, V190S); test: co-purification of a coexpressed complex
T2 sequence (looked up): T1 sequence (Q6CJU9 179-434) with V12S

[3] = biological target: T3, N-terminally His6-tagged K. lactis Mmm1s (179–434) L274S (Kluyveromyces lactis, UniProt Q6CJU9 179-434, L274S); test: co-purification of a coexpressed complex
T3 sequence (looked up): T1 sequence (Q6CJU9 179-434) with L96S

[4] = biological target: T4, N-terminally His6-tagged K. lactis Mmm1s (179–434) I369S (Kluyveromyces lactis, UniProt Q6CJU9 179-434, I369S); test: co-purification of a coexpressed complex
T4 sequence (looked up): T1 sequence (Q6CJU9 179-434) with I191S

Molecule: CCCCCCCC/C=C\CCCCCCCC(=O)OC[C@H](COP(=O)(O)OC[C@H](Nc1ccc([N+](=O)[O-])c2nonc12)C(=O)O)OC(=O)CCCCCCC/C=C\CCCCCCCC [NBD-PS, 1,2-dioleoyl-sn-glycero-3-phospho-L-serine-N-(7-nitro-2-1,3-benzoxadiazol-4-yl)]
- NBD-PS transferred after 10 s [1]: Efficiency of NBD-PS transfer between liposomes by HMmm1s–Mdm12 was threefold higher

- binding result [2]: binds
- binding result [3]: binds
- binding result [4]: binds
B1: KlMdm12 (residues 1–239 of K. lactis Mdm12), nontagged (domain or fragment, Kluyveromyces lactis, UniProt Q6CUC3 1-239, looked up)
chain: T1 sequence (Q6CUC3 1-239)

— PMC5839780 (The Journal of Cell Biology, 2018)
